From patent US20140315799A1 (J DAVID GLADSTONE INSTITUTES, published 2014) come the findings set out here.

This experiment deals with T1, endogenous p75^NTR in 3T3L1 adipocytes (mouse, UniProt Q9Z0W1 32-427).
T1 construct: whole, on cells
T1 sequence (looked up): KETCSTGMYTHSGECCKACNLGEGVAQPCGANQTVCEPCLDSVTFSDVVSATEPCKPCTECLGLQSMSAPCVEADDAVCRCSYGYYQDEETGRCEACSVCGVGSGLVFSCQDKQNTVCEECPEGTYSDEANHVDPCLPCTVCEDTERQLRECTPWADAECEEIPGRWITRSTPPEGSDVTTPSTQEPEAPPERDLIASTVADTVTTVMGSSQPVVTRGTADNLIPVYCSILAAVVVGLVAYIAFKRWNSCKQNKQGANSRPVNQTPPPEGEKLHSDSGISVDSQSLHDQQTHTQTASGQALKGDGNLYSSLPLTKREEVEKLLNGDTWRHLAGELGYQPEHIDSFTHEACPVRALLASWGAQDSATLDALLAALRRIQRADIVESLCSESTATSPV
As to the kind of experiment: endogenous co-IP from 3T3L1 adipocytes (anti-p75NTR IP, anti-Rab31 blot).

Procedure: Briefly, cell lysates were prepared in 1% Nonidet P-40 (NP-40; non-ionic detergent), 200 mM NaCl, 1 mM EDTA, and 20 mM Tris-HCl, pH 8.0. Immunoprecipitations (IPs) were performed with an anti-p75^NTR antibody and immunoblot with anti-Rab31 and anti-p75^NTR.
(C) Immunoprecipitation of p75^NTR with Rab31 and Rab5 in 3T3L1 adipocytes stimulated with insulin. Lysates were immunoprecipitated with anti-p75^NTR antibody, and western blots were developed with anti-Rab31 and anti-Rab5 antibodies.

B1: endogenous Rab31 in 3T3L1 adipocytes (enzyme, UniProt Q921E2 1-195, looked up)
chain: MMAIRELKVCLLGDTGVGKSSIVCRFVQDHFDHNISPTIGASFMTKTVPCGNELHKFLIWDTAGQERFHSLAPMYYRGSAAAVIVYDITKQDSFHTLKKWVKELKEHGPENIVMAIAGNKCDLSDIREVPLKDAKEYAESIGAIVVETSAKNAINIEELFQGISRQIPPLGPQENGNSGGIKLGNQSLQASRRCC
Regarding B1, the binding result is given as “binds”.
